From IntAct's records for PubMed 29125462

B1: RILP-like protein 2 (Homo sapiens), Q969X0 (parent)
chain: MEEPPVREEEEEEGEEDEERDEVGPEGALGKSPFQLTAEDVYDISYLLGRELMALGSDPRVTQLQFKVVRVLEMLEALVNEGSLALEELKMERDHLRKEVEGLRRQSPPASGEVNLGPNKMVVDLTDPNRPRFTLQELRDVLQERNKLKSQLLVVQEELQCYKSGLIPPREGPGGRREKDAVVTSAKNAGRNKEEKTIIKKLFFFRSGKQT
B2: RILP-like protein 1 (Homo sapiens), Q5EBL4 (parent)
chain: MEEERGSALAAESALEKNVAELTVMDVYDIASLVGHEFERVIDQHGCEAIARLMPKVVRVLEILEVLVSRHHVAPELDELRLELDRLRLERMDRIEKERKHQKELELVEDVWRGEAQDLLSQIAQLQEENKQLMTNLSHKDVNFSEEEFQKHEGMSERERQVMKKLKEVVDKQRDEIRAKDRELGLKNEDVEALQQQQTRLMKINHDLRHRVTVVEAQGKALIEQKVELEADLQTKEQEMGSLRAELGKLRERLQGEHSQNGEEEPETEPVGEESISDAEKVAMDLKDPNRPRFTLQELRDVLHERNELKSKVFLLQEELAYYKSEEMEEENRIPQPPPIAHPRTSPQPESGIKRLFSFFSRDKKRLANTQRNVHIQESFGQWANTHRDDGYTEQGQEALQHL

Variants of: B1
Conditions: with rab8a_human RAB8A

Effect of a mutation on the interaction, disrupting interaction strength:
R132E
K149E
R130E

Variants of: B2
Conditions: with rab8a_human RAB8A

Effect of a mutation on the interaction, disrupting interaction strength:
K310E
R291E
R293E
